{"source": "paper PMC4327562", "about": "“Emergence of terpene cyclization in Artemisia annua” (Nature Communications, 2015)", "test_system": "CC(C)=CCC/C(C)=C/CC/C(C)=C/CO[P@@](=O)(O)OP(=O)(O)O", "experiment": "purified protein", "conditions": "5 mM MgCl2, pH 7.0, 30 °C, inorganic pyrophosphatase coupled"}
{"substance": "(E)-β-farnesene synthase (BFS), A. annua BFS (Artemisia annua)", "values": [{"measurement": "Km", "result": 16.19, "unit": "µM"}, {"measurement": "kcat", "result": 0.17, "unit": "s⁻¹"}, {"measurement": "kcat/Km", "result": 10500, "unit": "M⁻¹ s⁻¹"}]}
